Assay [1] concerns the target huCD147-Strep (soluble extracellular domain of human CD147, Strep-tag II) (human). Description: BLI; Octet Red96e; […] (20 μg/mL) […]; 25 mM HEPES, 150 mM NaCl pH 7.5, 0.04% Tween-20; global 1:1 model.
In assay [2] the target is huCD147mt-Strep (glycosylation-deficient soluble extracellular domain of human CD147, Strep-tag II) (human). The assay is described as above.

pKd: −log10 of the molar value.

What is called pKd is the negative decadic logarithm of the Kd, by convention in mol/L. A high value points to a low Kd.

As to “[change] (soluble extracellular domain of H9N2 HA) (domain or fragment)”, the pKd in assay [1] is 6.51; in assay [2] it was 6.70.

On to “[change] (soluble extracellular domain of H1N1 HA) (from UniProt P03452 18-528) (domain or fragment)”, for which the pKd in assay [1] is 6.15; in assay [2] it was 6.30.

Source of the values: publication PMC12426278.
